The source of these data is publication PMC5728393 (Nucleic Acids Research, 2017).

For orientation: Kd means the equilibrium constant for the complex coming apart. Lower therefore signals tighter binding. Broadly, the stoichiometry N is the number of molecules, sites or subunits per partner or assembly.

First the molecules themselves.
T1: PadR (Bacillus spizizenii, UniProt E0TW95)
T1 sequence (E0TW95 1-182): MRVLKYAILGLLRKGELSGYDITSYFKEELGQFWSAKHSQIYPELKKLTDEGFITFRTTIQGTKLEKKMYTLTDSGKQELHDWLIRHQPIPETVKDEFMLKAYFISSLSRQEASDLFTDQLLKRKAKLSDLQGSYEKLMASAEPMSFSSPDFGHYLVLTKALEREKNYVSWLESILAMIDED

T2: PadR WT (Bacillus subtilis, UniProt E0TW95 1-182)
T2 sequence: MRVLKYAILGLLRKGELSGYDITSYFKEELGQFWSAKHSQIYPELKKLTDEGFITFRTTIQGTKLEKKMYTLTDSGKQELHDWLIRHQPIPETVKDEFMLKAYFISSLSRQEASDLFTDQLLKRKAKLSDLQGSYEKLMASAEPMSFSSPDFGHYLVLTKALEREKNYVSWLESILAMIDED

B1: phenolic acid decarboxylase regulator (PadR) from Bacillus subtilis, wild type (natural protein, UniProt E0TW95 1-182, looked up)
chain: MRVLKYAILGLLRKGELSGYDITSYFKEELGQFWSAKHSQIYPELKKLTDEGFITFRTTIQGTKLEKKMYTLTDSGKQELHDWLIRHQPIPETVKDEFMLKAYFISSLSRQEASDLFTDQLLKRKAKLSDLQGSYEKLMASAEPMSFSSPDFGHYLVLTKALEREKNYVSWLESILAMIDED
B2: operator T10A/T10'A (dsDNA)
DNA 1: CGGAACATGAAAATAGTTTCATGATTAC
DNA 2: GTAATCATGAAACTATTTTCATGTTCCG
B3: operator C6T/C6'T (dsDNA)
DNA 1: CGGAATATGTAAATAGTTACATAATTAC
DNA 2: GTAATTATGTAACTATTTACATATTCCG
B4: operator T18G/T18'G (dsDNA)
DNA 1: CGGAACATGTCAATAGTGACATGATTAC
DNA 2: GTAATCATGTCACTATTGACATGTTCCG
B5: bridge operator (dsDNA)
DNA 1: AGTTACATGATTACCGGAACATGTAAAT
DNA 2: ATTTACATGTTCCGGTAATCATGTAACT
B6: operator T8A/T8'A (dsDNA)
DNA 1: CGGAACAAGTAAATAGTTACTTGATTAC
DNA 2: GTAATCAAGTAACTATTTACTTGTTCCG
B7: operator C6G/C6'G (dsDNA)
DNA 1: CGGAAGATGTAAATAGTTACATCATTAC
DNA 2: GTAATGATGTAACTATTTACATCTTCCG
B8: operator G9A/G9'A (dsDNA)
DNA 1: CGGAACATATAAATAGTTATATGATTAC
DNA 2: GTAATCATATAACTATTTATATGTTCCG
B9: operator T17A/T17'A (dsDNA)
DNA 1: CGGAACATGTATATAGATACATGATTAC
DNA 2: GTAATCATGTATCTATATACATGTTCCG
B10: operator G9T/G9'T (dsDNA)
DNA 1: CGGAACATTTAAATAGTTAAATGATTAC
DNA 2: GTAATCATTTAACTATTTAAATGTTCCG
B11: operator T18C/T18'C (dsDNA)
DNA 1: CGGAACATGTGAATAGTCACATGATTAC
DNA 2: GTAATCATGTGACTATTCACATGTTCCG
B12: operator C6A/C6'A (dsDNA)
DNA 1: CGGAAAATGTAAATAGTTACATTATTAC
DNA 2: GTAATAATGTAACTATTTACATTTTCCG

The first data set deals with T1, PadR. The data set is described as follows: isothermal titration calorimetry. Format: binding.
Details: not given
A general note: In ITC the heat of successive injections is recorded.
`O=C(O)/C=C/c1ccc(O)cc1` [p-coumaric acid]: binding was characterised by a dissociation constant (Kd) of 6200 ± 100 nM.

Another data set deals with the molecule itself. Put plainly: SEC.
Details: not given
For B1, the “stoichiometry N” value worked out at 2.

The target in the next data set is T2, PadR WT. Put plainly: fluorescence polarization.
Details: not given
As to B2, the affinity, expressed as Kd, was 11.6 ± 1.3 nM.
Still for that read-out and setting: then B3, with 160 ± 6.9 nM; and B4, with 9.9 ± 1.7 nM.
Still for that read-out and setting: as for B5, the figure is 8.9 ± 2.1 nM.
For the molecule B6, the Kd came to 41 ± 4 nM.
Consider B7, for which binding was put at a Kd of 200 ± 21.7 nM.
In turn, B8 yielded a Kd of 15.7 ± 2.9 nM. Against the preceding molecule, the Kd is about 13-fold lower.
Same read-out and setting: as for B9, the figure is 9.4 ± 1.4 nM.
Still for that read-out and setting: then B10, with 37.8 ± 6.7 nM; and B11, with 20.8 ± 1.9 nM; and B12, with 312 ± 45.5 nM.

The target in another data set is T1, PadR. Put plainly: X-ray crystal structure of the complex. The format is binding. The settings on record: 10 mM ferulic acid soak, 22% PEG 3350, 0.1 M sodium acetate pH 4.0; interdomain pocket.
With `COc1cc(/C=C/C(=O)O)ccc1O` [ferulic acid], the “X-ray crystal structure of the complex (soaked crystals)” value was “we also determined a PadR structure in complex with ferulic acid (PadR3FA)”.
